Legend:
[1] = molecular target: T1, ICAM-1 on HeLa cells (UniProt P05362 28-532, limits assumed); assay: cell-based or functional assay
[2] = molecular target: T2, soluble ICAM-1 (Bender MedSystems) (UniProt P05362 28-480, limits assumed); assay: ELISA on plate-coated soluble ICAM-1, His-tagged scFv detected with anti-His-HRP
T2 construct: Bought soluble protein coated on the ELISA plate
Description: (§1) To evaluate the binding affinity of histidine-tagged human single chain (hsc) proteins soluble ICAM was used in an ELISA assay. A 96-well EIA plate (Corning, Inc.) was coated with 100 μl/well soluble ICAM-1 (Bender MedSystems) at 1 μg/ml in 0.1 M. NaHCO₃. After washing with TBST (50 mM Tris, pH8.0, 150 mM NaCl, 0.05% Tween-20), the plate was blocked with 3% non-fat milk in TBST at 37° C. for 1 hour. After washing with TBST, the plate was incubated with scFv samples (100 μl/well) diluted in 1% non-fat milk/TBST solution at room temperature for 1 hour. After washing with TBST, the horse radish peroxidase-conjugated anti-His (C-term) antibody (Invitrogen) diluted 1:2000 in 1% non-fat milk/TBST was added and the plate was incubated at room temperature for 1 hour. The plate was washed thoroughly with TBST and 100 μl/well 3,3′,5,5′-tetramethylbenzidine substrate solution (Kirkegaard and Perry Laboratories) was added. After 5 min incubation, the color development was stopped by adding […] 0.12 N HCl and the absorbance of the wells at 450 nm was measured by a plate reader (ICN).

[3] = molecular target: T2, soluble ICAM-1 (Bender MedSystems); assay: ELISA on plate-coated soluble ICAM-1; reference Msc1A6
Description: as §1

[4] = molecular target: T1, ICAM-1 on HeLa cells; assay: cell-based or functional assay; remark: listed apart in the source

T1 sequence (P05362 28-532 limits assumed): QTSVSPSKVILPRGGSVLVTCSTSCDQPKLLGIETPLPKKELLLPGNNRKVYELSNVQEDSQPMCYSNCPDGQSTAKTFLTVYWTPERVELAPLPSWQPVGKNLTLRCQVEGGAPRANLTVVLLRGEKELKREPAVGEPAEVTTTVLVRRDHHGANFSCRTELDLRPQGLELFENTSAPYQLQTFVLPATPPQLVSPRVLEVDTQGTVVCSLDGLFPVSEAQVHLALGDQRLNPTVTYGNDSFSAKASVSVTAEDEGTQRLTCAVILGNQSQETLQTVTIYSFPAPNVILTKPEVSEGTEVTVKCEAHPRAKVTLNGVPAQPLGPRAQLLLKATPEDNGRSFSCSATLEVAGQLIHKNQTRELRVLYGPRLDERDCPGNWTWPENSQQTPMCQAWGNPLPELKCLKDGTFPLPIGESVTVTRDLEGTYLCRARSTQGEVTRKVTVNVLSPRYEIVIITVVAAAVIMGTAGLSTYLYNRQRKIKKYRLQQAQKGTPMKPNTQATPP
T2 sequence (P05362 28-480 limits assumed): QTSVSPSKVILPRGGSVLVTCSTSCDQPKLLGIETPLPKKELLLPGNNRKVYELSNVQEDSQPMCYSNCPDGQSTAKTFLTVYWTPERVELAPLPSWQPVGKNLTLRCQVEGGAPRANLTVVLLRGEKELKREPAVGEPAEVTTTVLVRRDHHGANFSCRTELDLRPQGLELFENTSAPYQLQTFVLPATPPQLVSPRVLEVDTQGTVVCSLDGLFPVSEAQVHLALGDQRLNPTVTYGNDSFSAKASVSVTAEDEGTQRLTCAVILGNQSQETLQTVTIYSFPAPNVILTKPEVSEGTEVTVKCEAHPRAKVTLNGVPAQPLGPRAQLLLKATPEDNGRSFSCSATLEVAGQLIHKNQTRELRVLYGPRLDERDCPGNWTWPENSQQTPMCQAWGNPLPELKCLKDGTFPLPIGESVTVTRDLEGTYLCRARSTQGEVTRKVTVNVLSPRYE

Row | Binder | EC 50 (µM): 50% protection of HeLa cells against HRV15 infection at 1 MOI [1] | Kd [2] | fold higher binding affinity than the parental mouse scFv [3] | EC50 of protection of HeLa cells from HRV infection, against the parental mouse 1A6 scFv protein [4]
1 | Msc1A6 (parental mouse monoclonal antibody 1A6 in the form of scFv) (scFv, V domains shown, Tested as a single-chain Fv (one polypeptide); also called Mouse 1A6 scFv; mouse IA6 scFv) VH: EVQLQQSGAELVKPGASLKLSCTASGFNIKDTYIHWMKQRPEQGLEWIGRIDPANDNTIYDPKVQGKATMTADTSSNTAYLQLNSLTSEDTAVYYCTTSGYWFAYWGQGTLVTVSS VL: DIVLTQSPATLSVTPGDSVSLSCRASQSISNNLHWYQQKHSESPRLLIKHASQSISGIPSRFSGSGSGTDFTLSINSVETEDFGMFFCQQSNSWPYTFGGGTKLEIKR | > 10 µM | 1180 nM | – | –
2 | HscD (humanized 1A6 scFv HumD) (scFv, not shown: carboxy-terminal His tag of vector pBAD/pIII A) scFv: DIQMTQSPSSLSASVGDRVTITCRASQSISNNLHWYQQKPGKAPKLLIYHASQSISGVPSRFSGSGSGTDFTLTISSLQPEDFATYYCQQSNSWPYTFGQGTKVEIKRGGGGSGGGGSGGGGSGGGGSEVQLVESGGGLVQPGGSLRLSCAASGFNIKDTYIHWVRQAPGKGLEWVARIDPANDNTIYADSVKGRFTISSDDSKNTAYLQMNSLRAEDTAVYYCTTSGYWFAYWGQGTLVTVSS | 0.05 µM | 23.3 nM | > 10 fold | –
3 | HscH (humanized 1A6 scFv HumH) (scFv, not shown: carboxy-terminal His tag of vector pBAD/pIII A) scFv: DIQMTQSPSSLSASVGDRVTITCRASQSISNNLHWYQQKPGKAPKLLIKHASQSISGVPSRFSGSGSGTDFTLTISSLQPEDFATYYCQQSNSWPYTFGQGTKVEIKRGGGGSGGGGSGGGGSGGGGSEVQLVESGGGLVQPGGSLRLSCAASGFNIKDTYIHWVRQAPGKGLEWVARIDPANDNTIYDPKVQGRFTISADDSKNTAYLQMNSLRAEDTAVYYCTTSGYWFAYWGQGTLVTVSS | 4.2 µM | 20.9 nM | > 10 fold | –
4 | HscF (humanized 1A6 scFv HumF) (scFv, not shown: carboxy-terminal His tag of vector pBAD/pIII A) scFv: DIQMTQSPSSLSASVGDRVTITCRASQSISNNLHWYQQKPGKAPKLLIYHASQSISGVPSRFSGSGSGTDFTLTISSLQPEDFATYYCQQSNSWPYTFGQGTKVEIKRGGGGSGGGGSGGGGSGGGGSEVQLVESGGGLVQPGGSLRLSCAASGFNIKDTYIHWVRQAPGKGLEWVARIDPANDNTIYADSVKGRFTISADDSKNTAYLQMNSLRAEDTAVYYCTTSGYWFAYWGQGTLVTVSS | 0.29 µM | 46 nM | > 10 fold | –
5 | HscA (humanized 1A6 scFv HumA) (scFv, also called humanized scFv A; scFV3; not shown: carboxy-terminal His tag of vector pBAD/pIII A) scFv: DIQMTQSPSSLSASVGDRVTITCRASQSISNNLHWYQQKPGKAPKLLIYHASQSISGVPSRFSGSGSGTDFTLTISSLQPEDFATYYCQQSNSWPYTFGQGTKVEIKRGGGGSGGGGSGGGGSGGGGSEVQLVESGGGLVQPGGSLRLSCAASGFNIKDTYIHWVRQAPGKGLEWVARIDPANDNTIYADSVKGRFTISSDDSKNTAYLQMNSLRAEDTAVYYCTDSGYWFAYWGQGTLVTVSS | – | 150 nM | > 10 fold | –
6 | HscI (humanized 1A6 scFv HumI) (scFv, not shown: carboxy-terminal His tag of vector pBAD/pIII A) scFv: DIQMTQSPSSLSASVGDRVTITCRASQSISNNLHWYQQKPGKAPKLLIKHASQSISGVPSRFSGSGSGTDFTLTISSLQPEDFATYYCQQSNSWPYTFGQGTKVEIKRGGGGSGGGGSGGGGSGGGGSEVQLVESGGGLVQPGGSLRLSCAASGFNIKDTYIHWMRQAPGKGLEWVARIDPANDNTIYDPKVQGRFTMSADTSKNTAYLQMNSLRAEDTAVYYCTTSGYWFAYWGQGTLVTVSS | > 10 µM | 150 nM | > 10 fold | –
7 | HscC (humanized 1A6 scFv HumC) (scFv, not shown: carboxy-terminal His tag of vector pBAD/pIII A) scFv: DIQMTQSPSSLSASVGDRVTITCRASQSISNNLHWYQQKPGKAPKLLIYHASQSISGVPSRFSGSGSGTDFTLTISSLQPEDFATYYCQQSNSWPYTFGQGTKVEIKRGGGGSGGGGSGGGGSGGGGSEVQLVESGGGLVQPGGSLRLSCAASGFNIKDTYIHWVRQAPGKGLEWVARIDPANDNTIYADSVKGRFTISGDDSKNTAYLQMNSLRAEDTAVYYCTTSGYWFAYWGQGTLVTVSS | – | 58 nM | > 10 fold | –
8 | HscB (humanized 1A6 scFv HumB) (scFv, also called Hum19; Hum 19 scFv; not shown: carboxy-terminal His tag of vector pBAD/pIII A) scFv: DIQMTQSPSSLSASVGDRVTITCRASQSISNNLHWYQQKPGKAPKLLIYHASQSISGVPSRFSGSGSGTDFTLTISSLQPEDFATYYCQQSNSWPYTFGQGTKVEIKRGGGGSGGGGSGGGGSGGGGSEVQLVESGGGLVQPGGSLRLSCAASGFNIKDTYIHWVRQAPGKGLEWVARIDPANDNTIYADSVKGRFTISSDDSKNTAYLQMNSLRAEDTAVYYCTASGYWFAYWGQGTLVTVSS | – | 26.2 nM | > 10 fold | > 60 fold
